Reference: PMC10116596 (Biochemistry, 2023)

B1: YopB_(48–57) 10 mer N-terminal anchor peptide of the major translocator YopB (peptide)
peptide: QGVQLPAPLA
notes: source: synthetic peptide
B2: YopD_(56–65) 10 mer N-terminal anchor peptide of the minor translocator YopD (peptide)
peptide: QVPELIKPSQ
notes: source: synthetic peptide
B3: LcrH: class II chaperone from Yersina Sp., forms weak homodimers when unbound (protein)
chain: MQQETTDTQEYQLAMESFLKGGGTIAMLNEISSDTLEQLYSLAFNQYQSGKYEDAHKVFQALCVLDHYDSRFFLGLGACRQAMGQYDLAIHSYSYGAIMDIKEPRFPFHAAECLLQKGELAEAESGLFLAQELIADKTEFKELSTRVSSMLEAIKLKKEMEHECVDNP

Legend:
[1] = biological target: T1, LcrH_(1–168), class II chaperone LcrH from Y. pestis (Y. pestis, UniProt P21207 1-168); test: ITC; conditions: both partners purified
T1 construct: also called LcrH/SycD
T1 sequence: B3 chain

LcrH = biological target: LcrH; design: method as in PMID 23233673; conditions: unbound chaperone weak homodimer; read-out: dimerization KD; cited from earlier work

Molecule | Kd [1] [µM] | dH [1] [kJ/mol] | Kd (LcrH) [µM]
B1 | 155 | -44 | 
B2 | 82 | -51 | 
B3 |  |  | ~15
